One assay addresses huPD-1-His (human, UniProt Q15116 25-167, limits assumed). As to the kind of experiment: ELISA, huPD-1-His coated. As to the method:
A panel of IL-2 muteins was expressed as C-terminal fusions to the Fc homodimer of Fc heterodimer and screened for binding to IL-2Rα in enzyme-linked immunosorbent assay (ELISA). Briefly, IL-2Rα-ECD (SEQ ID NO: 5) was coated onto the wells of Nunc Maxisorp 96-well microplates at 0.1 μg/well. After overnight incubation at 4° C. and blocking with superblock (Thermo Fisher), 3-fold serial dilutions of IL-2 Fc fusion proteins starting at 100 nM were added to each well at 100 μI/well. Following one-hour incubation at room temperature, 100 μl/well of goat anti-human IgG Fc-HRP (1:5000 diluted in diluent) were added to each well and incubated at room temperature for 1 hour. Wells were thoroughly aspirated and washed three times with PBS/0.05% Tween-20 following each step. Finally, 100 μl TMB substrate was added to each well; the plate was developed at room temperature in the dark for 10 minutes, and 100 μl/well of stop solution (2N Sulfuric acid, Ricca Chemical) was added. Absorbance was determined at 450 nm and curves were fit using Prism software (Graph Pad).
(§1) For direct binding, the same ELISA protocol in Example 4 was followed using huPD-1-His as the coating antigen. […] Briefly, plate was coated with 0.2 μg/well of human PD1-Fc protein at 4° C. for overnight. […] Streptavidin-HRP was added as the secondary antibody.

The target in assay [1] is PD-1 on PD-1 positive T cells (Tregs) of human PBMC (human, UniProt Q15116 25-288). As to the kind of experiment: cell-based or functional assay.
Sequence of PD-1 on PD-1 positive T cells (Tregs) of human PBMC (Q15116 25-288): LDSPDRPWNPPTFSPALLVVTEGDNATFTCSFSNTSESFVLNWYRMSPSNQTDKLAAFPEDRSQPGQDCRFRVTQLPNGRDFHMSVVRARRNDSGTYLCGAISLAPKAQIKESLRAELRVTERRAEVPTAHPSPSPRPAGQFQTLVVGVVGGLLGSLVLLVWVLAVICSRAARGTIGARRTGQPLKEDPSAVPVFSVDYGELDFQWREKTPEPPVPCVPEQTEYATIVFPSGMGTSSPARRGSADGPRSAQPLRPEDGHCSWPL
In another assay the target is human PD1-Fc protein (human, UniProt Q15116 25-167, limits assumed). Nature of the assay: competition ELISA, human PD1-Fc coated, biotinylated Human PDL1-Fc at 0.5 µg/mL as the ligand displaced. As to the method:
as §1
(In general: An ELISA detects its analyte on a solid surface through an enzyme-linked reagent.)

In assay [2] the target is T1, IL-2Rβγ on human CD8+ T cells, NK cells and CD4+ T cells (human, UniProt P14784 27-551; P31785 23-369).
T1 sequence (looked up) 1: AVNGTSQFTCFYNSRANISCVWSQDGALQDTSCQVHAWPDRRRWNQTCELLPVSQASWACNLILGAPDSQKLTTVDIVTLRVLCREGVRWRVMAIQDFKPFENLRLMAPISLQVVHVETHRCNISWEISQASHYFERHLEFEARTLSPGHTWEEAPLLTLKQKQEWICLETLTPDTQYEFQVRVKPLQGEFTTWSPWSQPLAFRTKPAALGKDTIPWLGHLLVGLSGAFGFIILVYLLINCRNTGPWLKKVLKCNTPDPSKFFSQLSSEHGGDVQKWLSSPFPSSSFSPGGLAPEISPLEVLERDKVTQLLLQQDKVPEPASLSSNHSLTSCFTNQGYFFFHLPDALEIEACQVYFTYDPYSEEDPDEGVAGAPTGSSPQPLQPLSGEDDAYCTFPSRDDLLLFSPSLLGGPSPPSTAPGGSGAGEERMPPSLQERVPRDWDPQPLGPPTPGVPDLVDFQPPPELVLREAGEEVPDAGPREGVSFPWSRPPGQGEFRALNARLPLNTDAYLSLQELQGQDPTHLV
T1 sequence (looked up) 2: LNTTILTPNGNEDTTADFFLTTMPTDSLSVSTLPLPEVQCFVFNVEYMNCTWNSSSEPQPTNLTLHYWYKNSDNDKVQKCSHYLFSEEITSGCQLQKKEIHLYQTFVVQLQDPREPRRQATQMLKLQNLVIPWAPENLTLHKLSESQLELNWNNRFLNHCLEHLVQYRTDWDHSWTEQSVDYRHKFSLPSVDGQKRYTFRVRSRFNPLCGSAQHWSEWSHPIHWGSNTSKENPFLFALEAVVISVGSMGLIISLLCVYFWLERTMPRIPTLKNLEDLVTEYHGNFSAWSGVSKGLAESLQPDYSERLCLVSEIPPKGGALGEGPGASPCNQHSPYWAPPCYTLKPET
As to the kind of experiment: cell-based or functional assay.

For assay [3], the target named is T2, recombinant IL-2Rβγ heterodimer (human).
T2 construct: IL-2Rβ ECD at the N-terminus of Fc hole chain, γc ECD at the N-terminus of Fc knob chain; also called recombinant IL-2Rβγ protein; dimeric IL-2Rβγ receptor
T2 chain 1: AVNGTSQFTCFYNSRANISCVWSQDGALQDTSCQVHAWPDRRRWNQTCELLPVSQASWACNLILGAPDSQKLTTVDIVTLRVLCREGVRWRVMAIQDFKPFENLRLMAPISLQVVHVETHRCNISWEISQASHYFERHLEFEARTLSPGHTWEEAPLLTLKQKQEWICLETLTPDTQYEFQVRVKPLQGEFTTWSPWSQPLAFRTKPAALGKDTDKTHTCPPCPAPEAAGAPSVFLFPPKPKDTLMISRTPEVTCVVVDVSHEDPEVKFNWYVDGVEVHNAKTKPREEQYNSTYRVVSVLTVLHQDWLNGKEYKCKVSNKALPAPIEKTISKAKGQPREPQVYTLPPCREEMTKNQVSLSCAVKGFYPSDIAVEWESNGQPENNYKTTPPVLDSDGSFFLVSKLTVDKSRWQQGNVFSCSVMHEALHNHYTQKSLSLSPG
T2 chain 2: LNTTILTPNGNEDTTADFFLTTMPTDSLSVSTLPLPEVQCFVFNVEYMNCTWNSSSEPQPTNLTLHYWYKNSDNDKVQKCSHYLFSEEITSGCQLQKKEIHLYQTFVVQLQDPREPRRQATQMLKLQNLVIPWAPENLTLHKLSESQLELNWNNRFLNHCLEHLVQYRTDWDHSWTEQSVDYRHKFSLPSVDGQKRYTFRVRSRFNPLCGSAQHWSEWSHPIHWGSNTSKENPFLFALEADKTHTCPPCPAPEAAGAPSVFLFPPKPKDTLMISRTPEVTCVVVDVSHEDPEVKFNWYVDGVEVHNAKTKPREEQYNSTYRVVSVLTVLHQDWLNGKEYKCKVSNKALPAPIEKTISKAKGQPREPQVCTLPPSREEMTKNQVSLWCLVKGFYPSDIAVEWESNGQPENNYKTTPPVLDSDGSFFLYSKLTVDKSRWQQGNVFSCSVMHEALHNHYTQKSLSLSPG
Nature of the assay: ELISA, IL-2Rβγ-Fc heterodimer coated. Here is the method:
After overnight incubation at 4° C. and blocking with 1% BSA, 3-fold serial dilutions of IL-2 Fc fusion proteins starting at 10 nM were added to each well at 100 μl/well. […] Subsequently, 100 μl/well of streptavidin-HRP (1:5000 diluted in diluent) were added to each well and incubated at room temperature for 40 min. Wells were thoroughly aspirated and washed three times with PBS/0.05% Tween-20 following each step. Finally, 100 μl TMB substrate was added to each well; the plate was developed at room temperature in the dark for 10 minutes, and 100 μl/well of stop solution (2N Sulfuric acid, Ricca Chemical) was added. Absorbance was determined at 450 nm and curves were fit using Prism software (GraphPad).

The target in assay [4] is T3, PD1 expressed on cell surface (UniProt Q15116 25-288, limits assumed).
T3 construct: whole, on cells; also called PD-1-expressing cells; cell surface expressed PD-1
T3 sequence (Q15116 25-288 limits assumed): as the sequence (Q15116 25-288) above
As to the kind of experiment: FACS on PD-1-expressing cells.

Sequence of huPD-1-His (Q15116 25-167 limits assumed): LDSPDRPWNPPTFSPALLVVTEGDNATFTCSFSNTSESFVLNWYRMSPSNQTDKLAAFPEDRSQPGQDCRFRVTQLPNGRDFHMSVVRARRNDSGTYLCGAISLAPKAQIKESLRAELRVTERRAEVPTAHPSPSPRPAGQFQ
Sequence of human PD1-Fc protein (Q15116 25-167 limits assumed): as above

B1: P-0803 (antibody, human IgG1, kappa)
heavy 1: not shown
heavy 2: EVQLVESGGGLVKPGGSLRLSCAASGFTFSSYDMSWVRQAPGKGLEWVATISGGGSYTYYPDSVKGRFTISRDNAKNSLYLQMNSLRAEDTAVYYCASPDSSGVAYWGQGTLVTVSSASTKGPSVFPLAPSSKSTSGGTAALGCLVKDYFPEPVTVSWNSGALTSGVHTFPAVLQSSGLYSLSSVVTVPSSSLGTQTYICNVNHKPSNTKVDKKVEPKSCDKTHTCPPCPAPEAAGAPSVFLFPPKPKDTLMISRTPEVTCVVVDVSHEDPEVKFNWYVDGVEVHNAKTKPREEQYNSTYRVVSVLTVLHQDWLNGKEYKCKVSNKALPAPIEKTISKAKGQPREPQVYTLPPCREEMTKNQVSLSCAVKGFYPSDIAVEWESNGQPENNYKTTPPVLDSDGSFFLVSKLTVDKSRWQQGNVFSCSVMHEALHNHYTQKSLSLSPG
light: DIVMTQSPLSLPVTPGEPASITCKASQDVETVVAWYLQKPGQSPRLLIYWASTRHTGVPDRFSGSGSGTDFTLKISRVEAEDVGVYYCQQYSRYPWTFGQGTKLEIKRTVAAPSVFIFPPSDEQLKSGTASVVCLLNNFYPREAKVQWKVDNALQSGNSQESVTEQDSKDSTYSLSSTLTLSKADYEKHKVYACEVTHQGLSSPVTKSFNRGEC
notes: also called IL-2 P65R/S125I human PD-1 antibody fusion, (G3S)2 linker
Turning to B1, in the assay with huPD-1-His, the EC50 (as a rule, the concentration needed to bring the measured effect to its halfway point) was determined as 0.6 nM. The “pSTAT5 in PD-1 positive T cells (human PBMC), potency against P-0782” value in assay [1] is greater than 15 fold. The IC50 (commonly the concentration needed to halve the response being measured) in the assay with human PD1-Fc protein is 2.1 nM.

B2: P-0795 (antibody, human IgG1, kappa, V domains shown)
VH: EVQLVESGGGLVKPGGSLRLSCAASGFTFSSYDMSWVRQAPGKGLEWVATISGGGSYTYYPDSVKGRFTISRDNAKNSLYLQMNSLRAEDTAVYYCASPDSSGVAYWGQGTLVTVSS
VL: DIVMTQSPLSLPVTPGEPASITCKASQDVETVVAWYLQKPGQSPRLLIYWASTRHTGVPDRFSGSGSGTDFTLKISRVEAEDVGVYYCQQYSRYPWTFGQGTKLEIKR
notes: full heavy and light chains; also called human PD-1 antagonist antibody; hPD1 antibody
Molecule B2 displayed an EC50 with huPD-1-His of 0.6 nM. Also, the IC50 with human PD1-Fc protein stood at 2.1 nM.

B3: P-0731 (Fc fusion)
chain 1: DKTHTCPPCPAPEAAGAPSVFLFPPKPKDTLMISRTPEVTCVVVDVSHEDPEVKFNWYVDGVEVHNAKTKPREEQYNSTYRVVSVLTVLHQDWLNGKEYKCKVSNKALPAPIEKTISKAKGQPREPQVCTLPPSREEMTKNQVSLWCLVKGFYPSDIAVEWESNGQPENNYKTTPPVLDSDGSFFLYSKLTVDKSRWQQGNVFSCSVMHEALHNHYTQKSLSLSPGGGGSGGGSAPTSSSTKKTQLQLEHLLHDLQMILNGINNYKNPKLTRMLTFKFYMPKKATELKHLQCLEEELKRLEEVLNLAQSKNFHLRPRDLISNINVIVLELKGSETTFMCEYADETATIVEFLNRWITFIQSIISTLT
chain 2: DKTHTCPPCPAPEAAGAPSVFLFPPKPKDTLMISRTPEVTCVVVDVSHEDPEVKFNWYVDGVEVHNAKTKPREEQYNSTYRVVSVLTVLHQDWLNGKEYKCKVSNKALPAPIEKTISKAKGQPREPQVYTLPPCREEMTKNQVSLSCAVKGFYPSDIAVEWESNGQPENNYKTTPPVLDSDGSFFLVSKLTVDKSRWQQGNVFSCSVMHEALHNHYTQKSLSLSPG
notes: knob chain carries the IL-2 variant; hole-Fc; monovalent; also called IL-2 L19H/P65R/S125I monovalent Fc fusion
Consider B3, for which, in assay [2], the “fold decrease in Ki67 expression on human CD8+ T cells (potency against P-0704)” value was roughly 30 fold; the “fold decrease in proliferation (Ki67) of human CD8+ T cells, NK cells and CD4+ T cells (potency against P-0704)” value was 30 fold. The binding result in assay [3] is recorded as “binds”.

B4: P-0761 (Fc fusion)
chain 1: DKTHTCPPCPAPEAAGAPSVFLFPPKPKDTLMISRTPEVTCVVVDVSHEDPEVKFNWYVDGVEVHNAKTKPREEQYNSTYRVVSVLTVLHQDWLNGKEYKCKVSNKALPAPIEKTISKAKGQPREPQVCTLPPSREEMTKNQVSLWCLVKGFYPSDIAVEWESNGQPENNYKTTPPVLDSDGSFFLYSKLTVDKSRWQQGNVFSCSVMHEALHNHYTQKSLSLSPGGGGSGGGSAPTSSSTKKTQLQLEHLLYDLQMILNGINNYKNPKLTRMLTFKFYMPKKATELKHLQCLEEELKRLEEVLNLAQSKNFHLRPRDLISNINVIVLELKGSETTFMCEYADETATIVEFLNRWITFIQSIISTLT
chain 2: DKTHTCPPCPAPEAAGAPSVFLFPPKPKDTLMISRTPEVTCVVVDVSHEDPEVKFNWYVDGVEVHNAKTKPREEQYNSTYRVVSVLTVLHQDWLNGKEYKCKVSNKALPAPIEKTISKAKGQPREPQVYTLPPCREEMTKNQVSLSCAVKGFYPSDIAVEWESNGQPENNYKTTPPVLDSDGSFFLVSKLTVDKSRWQQGNVFSCSVMHEALHNHYTQKSLSLSPG
notes: knob chain carries the IL-2 variant; hole-Fc; monovalent; also called IL-2 L19Y/P65R/S125I monovalent Fc fusion
Turning to B4, the binding result in assay [3] is “binds”.

B5: P-0759 (Fc fusion)
chain 1: DKTHTCPPCPAPEAAGAPSVFLFPPKPKDTLMISRTPEVTCVVVDVSHEDPEVKFNWYVDGVEVHNAKTKPREEQYNSTYRVVSVLTVLHQDWLNGKEYKCKVSNKALPAPIEKTISKAKGQPREPQVCTLPPSREEMTKNQVSLWCLVKGFYPSDIAVEWESNGQPENNYKTTPPVLDSDGSFFLYSKLTVDKSRWQQGNVFSCSVMHEALHNHYTQKSLSLSPGGGGSGGGSAPTSSSTKKTQLQLEHLLQDLQMILNGINNYKNPKLTRMLTFKFYMPKKATELKHLQCLEEELKRLEEVLNLAQSKNFHLRPRDLISNINVIVLELKGSETTFMCEYADETATIVEFLNRWITFIQSIISTLT
chain 2: DKTHTCPPCPAPEAAGAPSVFLFPPKPKDTLMISRTPEVTCVVVDVSHEDPEVKFNWYVDGVEVHNAKTKPREEQYNSTYRVVSVLTVLHQDWLNGKEYKCKVSNKALPAPIEKTISKAKGQPREPQVYTLPPCREEMTKNQVSLSCAVKGFYPSDIAVEWESNGQPENNYKTTPPVLDSDGSFFLVSKLTVDKSRWQQGNVFSCSVMHEALHNHYTQKSLSLSPG
notes: knob chain carries the IL-2 variant; hole-Fc; monovalent; also called IL-2 L19Q/P65R/S125I monovalent Fc fusion
Regarding B5, the binding result is “no binding” in assay [4] and “binds” in assay [3].
